Tests used:
[1] = target: T1, 4H3817-bH; assay: two-hybrid library CCNG1;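 note: natural log of median RNA to DNA barcode read ratio; higher means stronger binding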
T1 chain: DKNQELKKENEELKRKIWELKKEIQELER

[2] = target: T2, 4H3162-bH; assay: two-hybrid library CCNG1;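 note: natural log of median RNA to DNA barcode read ratio; higher means stronger binding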
T2 chain: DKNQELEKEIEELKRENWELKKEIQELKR

[3] = target: T3, 4H906-bH; assay: two-hybrid library CCNG1;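 note: natural log of median RNA to DNA barcode read ratio; higher means stronger binding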
T3 chain: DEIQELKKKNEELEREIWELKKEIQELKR

[4] = target: T4, 4H1348-bH; assay: two-hybrid library CCNG1;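 note: natural log of median RNA to DNA barcode read ratio; higher means stronger binding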
T4 chain: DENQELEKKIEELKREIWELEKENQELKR

[5] = target: T5, 4H3462-bH; assay: two-hybrid library CCNG1;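 note: natural log of median RNA to DNA barcode read ratio; higher means stronger binding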
T5 chain: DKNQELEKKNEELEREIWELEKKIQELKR

[6] = target: T6, 4H850-bH; assay: two-hybrid library CCNG1;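 note: natural log of median RNA to DNA barcode read ratio; higher means stronger binding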
T6 chain: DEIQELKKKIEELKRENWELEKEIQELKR

[7] = target: T7, 4H3628-bH; assay: two-hybrid library CCNG1
T7 chain: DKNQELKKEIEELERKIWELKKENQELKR

[8] = target: T8, 4H3497-bH; assay: two-hybrid library CCNG1
T8 chain: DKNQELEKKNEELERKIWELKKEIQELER

[9] = target: T9, 4H1373-bH; assay: two-hybrid library CCNG1
T9 chain: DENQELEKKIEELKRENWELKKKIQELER

[10] = target: T10, 4H591-bH; assay: two-hybrid library CCNG1
T10 chain: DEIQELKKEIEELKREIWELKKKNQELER

[11] = target: T11, 4H570-bH; assay: two-hybrid library CCNG1
T11 chain: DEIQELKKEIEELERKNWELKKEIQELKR

[12] = target: T12, 4H1899-bH; assay: two-hybrid library CCNG1
T12 chain: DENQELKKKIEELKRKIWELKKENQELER

[13] = target: T13, 4H626-bH; assay: two-hybrid library CCNG1
T13 chain: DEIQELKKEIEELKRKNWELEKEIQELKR

[14] = target: T14, 4H1985-bH; assay: two-hybrid library CCNG1
T14 chain: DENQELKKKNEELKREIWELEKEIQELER

[15] = target: T15, 4H3613-bH; assay: two-hybrid library CCNG1
T15 chain: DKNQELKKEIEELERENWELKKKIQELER

[16] = target: T16, 4H3298-bH; assay: two-hybrid library CCNG1
T16 chain: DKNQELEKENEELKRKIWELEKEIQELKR

[17] = target: T17, 4H3926-bH; assay: two-hybrid library CCNG1
T17 chain: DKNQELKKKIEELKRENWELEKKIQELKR

[18] = target: T18, 4H3185-bN; assay: two-hybrid library CCNG1
T18 chain: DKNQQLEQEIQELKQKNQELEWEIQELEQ

[19] = target: T19, 4H1544-bH; assay: two-hybrid library CCNG1
T19 chain: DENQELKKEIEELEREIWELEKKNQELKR

[20] = target: T20, 4H3175-bH; assay: two-hybrid library CCNG1
T20 chain: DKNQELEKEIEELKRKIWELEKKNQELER

[21] = target: T21, 4H1710-bH; assay: two-hybrid library CCNG1
T21 chain: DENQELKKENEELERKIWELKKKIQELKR

[22] = target: T22, 4H3974-bH; assay: two-hybrid library CCNG1
T22 chain: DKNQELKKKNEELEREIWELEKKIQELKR

[23] = target: T23, 4H3277-bH; assay: two-hybrid library CCNG1
T23 chain: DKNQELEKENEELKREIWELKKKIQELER

[24] = target: T24, 4H3858-bH; assay: two-hybrid library CCNG1
T24 chain: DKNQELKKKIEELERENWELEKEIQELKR

[25] = target: T25, 4H1449-bH; assay: two-hybrid library CCNG1
T25 chain: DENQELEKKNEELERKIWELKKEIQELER

[26] = target: T26, O2-bA; assay: two-hybrid library CCNG1
T26 chain: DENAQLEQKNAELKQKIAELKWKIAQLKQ

[27] = target: T27, O9-bA; assay: two-hybrid library CCNG1
T27 chain: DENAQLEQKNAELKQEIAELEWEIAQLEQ

[28] = target: T28, O4-bA; assay: two-hybrid library CCNG1
T28 chain: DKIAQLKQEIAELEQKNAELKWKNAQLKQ

[29] = target: T29, O7-bA; assay: two-hybrid library CCNG1
T29 chain: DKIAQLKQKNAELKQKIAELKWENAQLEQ

[30] = target: T30, O13-bA; assay: two-hybrid library CCNG1
T30 chain: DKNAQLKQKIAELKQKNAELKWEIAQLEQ

[31] = target: T31, O12-bA; assay: two-hybrid library CCNG1
T31 chain: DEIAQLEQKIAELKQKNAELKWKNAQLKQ

[32] = target: T32, O8-bA; assay: two-hybrid library CCNG1
T32 chain: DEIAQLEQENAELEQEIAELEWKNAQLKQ

[33] = target: T33, O6-bA; assay: two-hybrid library CCNG1
T33 chain: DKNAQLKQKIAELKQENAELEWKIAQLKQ

[34] = target: T34, O15-bA; assay: two-hybrid library CCNG1
T34 chain: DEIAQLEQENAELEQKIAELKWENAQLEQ

[35] = target: T35, O11-bA; assay: two-hybrid library CCNG1
T35 chain: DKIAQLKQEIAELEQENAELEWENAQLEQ

[36] = target: T36, O5-bA; assay: two-hybrid library CCNG1
T36 chain: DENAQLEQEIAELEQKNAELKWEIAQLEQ

[37] = target: T37, O3-bA; assay: two-hybrid library CCNG1
T37 chain: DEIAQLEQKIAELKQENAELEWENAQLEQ

[38] = target: T38, O14-bA; assay: two-hybrid library CCNG1
T38 chain: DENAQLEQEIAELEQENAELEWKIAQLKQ

[39] = target: T39, O16-bA; assay: two-hybrid library CCNG1
T39 chain: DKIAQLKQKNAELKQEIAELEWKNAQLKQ

[40] = target: T40, 4H2600-AA; assay: two-hybrid library CCmax; conditions: mean of both orientations
T40 chain: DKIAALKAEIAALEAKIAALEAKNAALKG

[41] = target: T41, 4H1802-AA; assay: two-hybrid library CCmax; conditions: mean of both orientations
T41 chain: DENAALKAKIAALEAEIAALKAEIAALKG

[42] = target: T42, 4H3651-AA; assay: two-hybrid library CCmax; conditions: mean of both orientations
T42 chain: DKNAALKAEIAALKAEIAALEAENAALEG

[43] = target: T43, 4H58-AA; assay: two-hybrid library CCmax; conditions: mean of both orientations
T43 chain: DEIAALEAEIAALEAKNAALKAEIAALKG

[44] = target: T44, 4H3705-AA; assay: two-hybrid library CCmax; conditions: mean of both orientations
T44 chain: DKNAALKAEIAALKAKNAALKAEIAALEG

[45] = target: GCN2_T; assay: two-hybrid library CCmax; conditions: mean of both orientations
[46] = target: T45, 4H3365-AA; assay: two-hybrid library CCmax; conditions: mean of both orientations
T45 chain: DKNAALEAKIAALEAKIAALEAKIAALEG

[47] = target: T46, 4H_APH; assay: two-hybrid library CCmax; conditions: mean of both orientations
T46 chain: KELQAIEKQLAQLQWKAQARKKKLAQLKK

[48] = target: T47, 4H535-AA; assay: two-hybrid library CCmax; conditions: mean of both orientations
T47 chain: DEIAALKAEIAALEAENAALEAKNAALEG

[49] = target: T48, 4H3020-AA; assay: two-hybrid library CCmax; conditions: mean of both orientations
T48 chain: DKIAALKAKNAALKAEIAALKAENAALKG

[50] = target: T49, 4H895-AA; assay: two-hybrid library CCmax; conditions: mean of both orientations
T49 chain: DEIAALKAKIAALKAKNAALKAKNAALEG

[51] = target: 4H_GCN4; assay: two-hybrid library CCmax
[52] = target: T50, 4H355-AA; assay: two-hybrid library CCmax; conditions: mean of both orientations
T50 chain: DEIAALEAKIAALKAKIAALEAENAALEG

[53] = target: T51, 4H3782-AA; assay: two-hybrid library CCmax; conditions: mean of both orientations
T51 chain: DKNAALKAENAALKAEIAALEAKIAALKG

[54] = target: T52, 4H2898-AA; assay: two-hybrid library CCmax; conditions: mean of both orientations
T52 chain: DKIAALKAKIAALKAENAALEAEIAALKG

[55] = target: T53, 4H486-AA; assay: two-hybrid library CCmax; conditions: mean of both orientations
T53 chain: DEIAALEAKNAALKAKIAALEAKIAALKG

[56] = target: T54, 4H2750-AA; assay: two-hybrid library CCmax; conditions: mean of both orientations
T54 chain: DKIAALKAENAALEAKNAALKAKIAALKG

[57] = target: T55, 4H_BCR; assay: two-hybrid library CCmax; conditions: mean of both orientations
T55 chain: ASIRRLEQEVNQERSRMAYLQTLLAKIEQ

[58] = target: T56, 4H465-AA; assay: two-hybrid library CCmax; conditions: mean of both orientations
T56 chain: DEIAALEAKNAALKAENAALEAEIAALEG

[59] = target: T57, 4H2721-AA; assay: two-hybrid library CCmax; conditions: mean of both orientations
T57 chain: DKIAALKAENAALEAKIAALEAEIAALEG

[60] = target: T58, 4H140-AA; assay: two-hybrid library CCmax
T58 chain: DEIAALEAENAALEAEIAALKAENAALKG

[61] = target: T59, P4A; assay: two-hybrid library CCNG1
T59 chain: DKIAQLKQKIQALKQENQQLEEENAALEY

[62] = target: T60, P7A; assay: two-hybrid library CCNG1
T60 chain: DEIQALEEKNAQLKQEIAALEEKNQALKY

[63] = target: T61, P5A; assay: two-hybrid library CCNG1
T61 chain: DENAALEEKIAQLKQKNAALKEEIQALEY

[64] = target: T62, P1A; assay: two-hybrid library CCNG1
T62 chain: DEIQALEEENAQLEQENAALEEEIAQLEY

[65] = target: T63, P6A; assay: two-hybrid library CCNG1
T63 chain: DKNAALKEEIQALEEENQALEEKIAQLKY

[66] = target: T64, P3A; assay: two-hybrid library CCNG1
T64 chain: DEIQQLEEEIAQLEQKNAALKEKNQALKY

[67] = target: T65, P9A; assay: two-hybrid library CCNG1
T65 chain: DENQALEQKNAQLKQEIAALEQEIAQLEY

[68] = target: T66, P2A; assay: two-hybrid library CCNG1
T66 chain: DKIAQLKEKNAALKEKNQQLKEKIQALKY

[69] = target: T67, P8A; assay: two-hybrid library CCNG1
T67 chain: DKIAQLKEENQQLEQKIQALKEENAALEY

Chain of 4H_GCN4 (chain, as listed by the source): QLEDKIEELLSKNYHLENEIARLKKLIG

DENQELEKKIEELKREIWELEKENQELKR [4H1348-bH]
interaction score [1]: 0.205
interaction score [2]: 0.415
interaction score [3]: -0.14
interaction score [4]: 0.814
interaction score [5]: 0.558
interaction score [6]: 0.659
interaction score [7]: 1.42
interaction score [8]: 0.0523
interaction score [9]: 0.103
interaction score [10]: -1.39
interaction score [11]: -0.807
interaction score [12]: 0.883
interaction score [13]: -1.01
interaction score [14]: 0.722
interaction score [15]: -1.69
interaction score [16]: 0.0904
interaction score [17]: 0.857
interaction score [18]: -1.2
interaction score [19]: 1.3
interaction score [20]: 0.435
interaction score [21]: -0.0273
interaction score [22]: 1.36
interaction score [23]: -0.13
interaction score [24]: 0.0862
interaction score [25]: 1.19

DKIAQLKQEIAELEQENAELEWENAQLEQ [O11-bA]
interaction score [26]: -0.637
interaction score [27]: -0.659
interaction score [28]: 2.16
interaction score [29]: -0.686
interaction score [30]: -1.12
interaction score [31]: 2.25
interaction score [32]: -1.31
interaction score [33]: -0.9
interaction score [34]: -0.971
interaction score [35]: -0.526
interaction score [36]: -0.78
interaction score [37]: -0.525
interaction score [38]: -0.951
interaction score [39]: -0.988

DEIAALEAENAALEAEIAALKAENAALKG [4H140-AA]
interaction score [40]: -1.83
interaction score [41]: -1.67
interaction score [42]: -1.02
interaction score [43]: 1.01
interaction score [44]: 1.36
interaction score [45]: -1.08
interaction score [46]: -1.08
interaction score [47]: -2.79
interaction score [48]: -1.56
interaction score [49]: 2.23
interaction score [50]: -1.44
interaction score [51]: -0.95
interaction score [52]: -1.06
interaction score [53]: -0.5
interaction score [54]: -0.325
interaction score [55]: -0.379
interaction score [56]: -0.883
interaction score [57]: -1.18
interaction score [58]: -1.51
interaction score [59]: -1.25
interaction score [60]: 1.28

DEIQALEEENAQLEQENAALEEEIAQLEY [P1A]
interaction score [61]: -0.87
interaction score [62]: -1.31
interaction score [63]: -2.1
interaction score [64]: -1.11
interaction score [65]: -1.54
interaction score [66]: -1.69
interaction score [67]: -1.68
interaction score [68]: 2.6
interaction score [69]: -1

Reference: publication PMC10397247
